Assay: soluble fraction after stress (log2 fold change); higher = more stays soluble; pooled small domains, quantitative proteomics
Settings: stress: 50 degC
Summary of the method: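 Pooled custom libraries of small protein domains were each held under stress at 50°C. The read-out, high-throughput quantitative proteomics, tracked how much of each protein stayed soluble. This is reported as a base-two log fold change used to indicate aggregation propensity. Higher values mean more protein remains in solution.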

First: HMQLFKFKNAMMELAKNKNITLDTAEKAIGLEAGFTELVARGVKELALSDVIKISKYFNTTMDSVLD
Second: HMLPISGDDRDALDMAALILKQYDSLPILKEFANVVTKLQTVLDGVVSNSIEARRQMIQFEE
The “soluble fraction (log2)” value of the first is lower: -0.903 for the first, -0.0336 for the second.

Going from “HMNVRRSRTHEKVTTYQGYDIFINKEPNQRGMFTSAPMRGDNEYSNLRGEGKSKQDAVNMTKEKIDEIAA” to “HMNSYKGELLVDDKNIRLDLYLFNQFNFFSRTKIKNYILKGNVLVNNNKTSPSYILKGSEKIYYDFSVS”, the “soluble fraction (log2)” value falls from 0.403 to -1.2.

First: HMALLSNEDIMFNLEFNRDLAVASNDGVSRDEFLRNKYGISEEEYNMLRARYGDGLNAARIKEYVGQRD
Second: HMDIYLTAFKTTSNQVTLNGIARSDLIISEFMRDIRDAKLFGEPVLQVIQNKNLNNVQARVFELVVPL
The “soluble fraction (log2)” value of the first is higher: 0.104 for the first, -0.263 for the second.

Going from “HMAMTNEEREALISEIKQTVNNSIDLKKDISDTEIKEAITQAVFERSEKSYLSIAEKQDIITAVFNSMR” to “HMHAGQIISQKIKESGISISHVAKHLKVQRATLYNLFEREVWPAHRLRTIEALLHIDLSDLYP”, the “soluble fraction (log2)” value falls from 0.0202 to -1.62.

First: HMISRDPYDAGAIKRHFSASGLFSSKELAHYLGKSVSTAKNVLSDLQQQGIVEMVGQGPATKYRFI
Second: HMNEYLPEAVQKLLEVMEYDIPYTSNELMERLGLKAKEGFRRNYLHPAMEMKLIQMTIPDKPNSRNQRYLR
The “soluble fraction (log2)” value of the first is higher: 0.343 for the first, -2.11 for the second.

Going from “HMLSTNDYNENKNKLIKDFEIKFIIKHLKLNKGNVAATARSINFHPVSLRQKIAKLGIDVDEVMAG” to “HMSYPEIFQSLTEREQKIADMIAEHLSNKEIAEKMFLSEGTIKQYINQIYSKLQITGDIRNKRKQLIELFH”, the “soluble fraction (log2)” value rises from -1.84 to -1.16.

“HMRTIPDALIGRPYESVETAIVLEGLQAKRTEVFHPTIRPGTVIRLEPTSGSELLRDGVVEIFVSQGPETT” and “HMRGADNAASILKEVGPHPEDGKPITVRSGRYGPYVKHGTTNATLPKDIKPEEITLDEAIALINERVAKG” are within 0.2 log units of each other in “soluble fraction (log2)” value: -0.159 for the first, -0.243 for the second.

First: HMQFLKPQDVLFLLKLVVLKGPASIFPAVPESLGLSKAEVHNSAKRVRGARLLPHDSWNPLRKNLLEFL
Second: HMSGHEVMVQRITAIIAELYQYGFVSRKKMMDEFNISERTLYRDLNRLGDRIVPDGDGIYRLAPAYA
The “soluble fraction (log2)” value of the first is higher: -0.148 for the first, -1.55 for the second.

First: HMDAPQRVTYLLPHSRGEVVSWLHRQGEVVAQEYEAEGVRVVVDLRYAQIRQAAKQFDVLPAEG
Second: HMNYTALLNNFSENMKKRRVELSLSQKELASIVGVSVRTIQNYENKKTIPTSAVMESISIALDMGLEKMID
The “soluble fraction (log2)” value of the first is higher: -0.0612 for the first, -1.27 for the second.

Going from “HMIKIEDILNVESVELSDSEYKKFLNGILINVKNLENGWAKVYSGNEFKGFGIVDKNLLKRKIVID” to “HMDLDIGSVLQASRGEKKISLRQLAERTGLTASMLSQIERNLVNPSINTLKVIAAALEIPMYKFFMG”, the “soluble fraction (log2)” value falls from -0.426 to -0.835.

First: HMSRFLEGILQRRAGGKNYFVPDDGSNPIFIADRNSAGAANGDRVRIAQFARRPRSGPEGEVVEILKRAK
Second: HMAALTADEAKQIALKHAGVAESDVQRLKVEQDRDDGRLLYEVEWDVGRTEYSYEIDANTGDILNYEKDV
The “soluble fraction (log2)” value of the first is lower: -0.00665 for the first, 0.254 for the second.

First: HMSEYLDIHMAMEKLNRKEQLFVHLRFYEGLTQSEIAQRLFTSQVQISRLEKSVLEKMRQILSK
Second: HMTDEEFSRIVKYTAVRYGINLYHKKVMVEGRLSNYLAANGFKSYTEYMDRVEADYTGQEAQNLINILTT
The “soluble fraction (log2)” value of the first is lower: -1.34 for the first, -0.258 for the second.

Going from “HMQISNEEELEKIIENVIESNPEKVKAYQSGKSGLIGFFMGQVMKESGGQANPNLVNQILKGKL” to “HMFLSSEERRERIIEVLRQQDEVTVVELSHRLGVSEVTTRKDLQQLEEQGYLTRVRGGAVVSGRGQL”, the “soluble fraction (log2)” value falls from 0.202 to -0.0183.

First: HMRIGINDRIHEIVDVLRLKKSTPFEDLFSGLVTRFDLVITFLALLEMGKLRLLRLYQTDPLAPLHVEYTG
Second: HMKLARGEFEIMAKFIKEISGISLEQNKTYLIESRLSDLAESEGVKTFSDFFFKAKFNKILKEKIIDAI
The “soluble fraction (log2)” value of the first is higher: -0.152 for the first, -0.946 for the second.

First: HMKMPNGYGSVYKLSGNRRKPWAARVTDGWVNDTKTKKSKQKYKFIGFYETRKEALLALADYNANP
Second: HMHTPSGALLSAIEKEWGSFDNFKKEFTTAATSLFGSGWVWLAKDKKGKLYILSENNAGNPITKGYTPILG
The “soluble fraction (log2)” value of the first is lower: -1.43 for the first, -0.262 for the second.

First: HMSERIITFGEATREAMLEEMRADERVFVYGEDIAKQGGIFGQFAGMKDEFPERVLDTPISETALVGAG
Second: HMNNNIFVYPNPSINYINIDSDEEIWKLEIIQMSGEKINILPFSKRIDISFLSKGLYILNFNNYYIKFIK
The “soluble fraction (log2)” value of the first is higher: 0.0621 for the first, -0.187 for the second.

“HMDKRYYYRILGLVGEPTRDQIEAAYETRIAKLRSSDYGDDPLYARRKISEVTMAYKVLTGS” and “HMDFDPDVPSREDILQAFRDSKPPLTVNALISEFGLSRDASIVGLERRMGAMQRDGQLEQTPSGWQLSV” are within 0.2 log units of each other in “soluble fraction (log2)” value: -0.281 for the first, -0.158 for the second.

First: HMDGVLLDHLDGFVTTRRGVEAWLEQPTSFNKPSILLVAADGESTRRAIPSIAFGYDFASRHDIPAYDAG
Second: HMLESPVEAIIRQIKQLITNGKLKPGDRLPAERLLAENFGVGRGYVREAIMKLEFFGLLKTSPQSGTYVAG
The “soluble fraction (log2)” value of the first is higher: -0.496 for the first, -0.748 for the second.

In the case of “HMGPASTGAHQLGLKPGDEVTHRAWGEGVVTSTTGEGDRAEAVVDFDAVGEKRLLLAWAPLER”, the “soluble fraction (log2)” value was 0.00864.

— the domain aggregation screens of Martell et al. (2025)
